In the nanobody polyreactivity screen of Harvey et al. (2022):

Experiment: yeast display, Sf9 membrane polyspecificity reagent, FACS + sequencing; frameworks hold sequencing errors
Outline: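 Sorting gates, low and high (top ~1%), were placed on anti-HA fluorescence to track expression and on streptavidin fluorescence to track reagent binding. A clone's polyreactivity label is taken from the gate it came out of. The reagent was 10% biotinylated, detergent-solubilized Sf9 membrane, applied for 1 hour at 4 °C to galactose-induced yeast display cells.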

Q: With “QVQLVESGGGLDQAGRSLRLSCAASGSTFPYTAMGWYRQAPGKYRELVAGITDGDGSTSYADSVKGRFTISRDNAKNTVYLQMNCMKPELPAVYYCAARYTYYADEDDYWGQGSQVTVSS” as the sequence, how does the “polyreactivity (PSR sort gate)” value read?
A: Its value is “low polyreactivity”.

Q: Which “polyreactivity (PSR sort gate)” value does the source give for “QVQLVESGGGLDQARGSLRLSCAASGITFHPNAMGWYRQAPGKERELVAAISGRRSRTYYADSVKGRFIISRDNAKNTVYLLLNSLKPEDTAVYYCAKDHPSGRQYDYWGQGTQVTVSS” here?
A: Its value is “high polyreactivity”.

Q: With “QVQLVESGGGLDQARGSLRLSCAASGRTFYSYAMGWYRQAPGKERELVAAISKRGTSTYYADSVKGRFTISRDNAKNTVYLQMNSLKPEDTAVYYCDAGAYIWDIYSYRWYDYWGQGTQVTVSS” as the sequence, how does the “polyreactivity (PSR sort gate)” value read?
A: The value was “high polyreactivity”.

Q: For “QVQLVESGGGLDQARGSLRLSCAASGSNFRYYAIGGYRPAHGKERELVASITGSGGRTYYADSVKGRFTISLDNAKNTVYLQMNSLKPEDTAVYYCAVPYHQGNMDYWGQGTQVTVSS”, which “polyreactivity (PSR sort gate)” value is on record?
A: Its value is “high polyreactivity”.

Q: With “QVQLVESGGGLDQARGSLRLSCAASGSTFAFYAMGWYRQAPGKERELVAAITGDGDSTYYADSVKGRFTISRDNAKNTVYLQMNSLKPEDTAVYYCAKSSGGGPSSFDYWGQGTQVTVSS” as the sequence, how does the “polyreactivity (PSR sort gate)” value read?
A: Its value is “low polyreactivity”.

Q: Which “polyreactivity (PSR sort gate)” value does the source give for “QVQLVESGGGLDQARGSLRLSCAASGYTFYRNAMGWYRQAPGKVRELVAAIRDDGSTYYADSVKGRFTISRDNAKNTVYLHMNSLKPADTAVYYCNRDYPYIWHKGARYWHDNDYWGQGTQVTVSS” here?
A: The value was “low polyreactivity”.

Q: Which “polyreactivity (PSR sort gate)” value does the source give for “QVQLVESGGGLDQEGGSLRLSCAASGNIFSSYLMGWYRQAPGKEREVVAAISSRGGSTYYADSVKGRFTISRDNAKNSVYLQMNSLKPEDTAVYYCAARTGRYYRRYDYWGQGTQVTLSS” here?
A: Its value is “high polyreactivity”.

Q: With “QVQLVESGGGLFHAGGRLRLSCAASGYTFRYYAMGWSRQAPGKERELVAGIDSGGGSTYYAASVKGRFTISRDNAKYTVYLQMNSLKPEDTAVYYCAVDTYSWYGEYYYWGQGTQVTVSS” as the sequence, how does the “polyreactivity (PSR sort gate)” value read?
A: Its value is “high polyreactivity”.

Q: Which “polyreactivity (PSR sort gate)” value does the source give for “QVQLVESGGGLFKAGGSLRLSCAASGFIFYFYNMAWYRQAPGKERELVAAISKSGTSTYYAASVKGRFTISRDNAKNTVYLQMNSLKPEDPAVYYCNKVRRANFDYWGQGTQVTVSS” here?
A: The value was “high polyreactivity”.

Q: With “QVQLVESGGGLFQAGASLRLSCAASGFIFTDYAIGWDTQAPGKERELVAAISSGGRTYYADSVKGRFTISRDNAKNTVYLQMNSLKPEDTAVYYCARGGRAEGWGQGTQVTVSS” as the sequence, how does the “polyreactivity (PSR sort gate)” value read?
A: Its value is “high polyreactivity”.

Q: With “QVQLVESGGGLFQAGGRLLLSCAASGRIFTYNTRGWYRQAPGKEREFVAAISSSSVSTYYADSVKGRITISRDNAKYTVYLQMNCLKPEDTAVYYCAAKRVGYHIGYVYPYGYWGQGTQVTVSS” as the sequence, how does the “polyreactivity (PSR sort gate)” value read?
A: Its value is “high polyreactivity”.

Q: With “QVQLVESGGGLFQAGGSLRISCAASGITFYGNAMGWYRQAPGKERELDATISSGGGTNYADSVKGRFTISRDNAKNTVYLQMNSLKPEDTAVYYCATDLSTVDYNYWGQGTQVTVSS” as the sequence, how does the “polyreactivity (PSR sort gate)” value read?
A: Its value is “low polyreactivity”.

Q: With “QVQLVESGGGLFQAGGSLRISCAATGSTFGSYAMGWYRQAPGKERELVAAISVGGGSTYYADSVKGRFTISRDNAKNTVYLKMNSLKPEDTAVFYCAATAPRWHHFYHWGQGTQVTVSS” as the sequence, how does the “polyreactivity (PSR sort gate)” value read?
A: Its value is “high polyreactivity”.

Q: With “QVQLVESGGGLFQAGGSLRLICAASGRIFDVNAMGWYRQAPRKEREMVAAISWSGGITYYADSVKGRFTISRDNAKNTVYLQMNSLKPEDTAVYYCAADKYQGYTFYQGYPGGGGYWGQGTQVTVSS” as the sequence, how does the “polyreactivity (PSR sort gate)” value read?
A: The value was “low polyreactivity”.

Q: With “QVQLVESGGGLFQAGGSLRLSCAASASIIPHNAMGWYRQAPGKERELVASITSRGGITYYADSVKGRFTISRDNAKNTVYLQMNSLKPEDTAVYYCAKDHAYTSAPHQYASEYYYWGQGTQVTVSS” as the sequence, how does the “polyreactivity (PSR sort gate)” value read?
A: The value was “low polyreactivity”.

Q: With “QVQLVESGGGLFQAGGSLRLSCAASGFIFARNAMSWYRQAPGKERELVAAISRNGGRTSYADSVKGRFTISRDNAKNTVYLQMNSMKAEDTAVYYCAKSQGYVSWTGAYSYDYWGQGTQVTVSS” as the sequence, how does the “polyreactivity (PSR sort gate)” value read?
A: The value was “high polyreactivity”.

Q: With “QVQLVESGGGLFQAGGSLRLSCAASGFIFLLNAMGWYRQAPGKERELVAAINSDGSTNYADSVKGRFTISRDNAKNTFYLQMNSLKPEDTGVYYCAARSFTLRGYDYWGQGTQVTVSS” as the sequence, how does the “polyreactivity (PSR sort gate)” value read?
A: The value was “low polyreactivity”.

Q: For “QVQLVESGGGLFQAGGSLRLSCAASGFNFDSNVMGWYRQAPGKERELVAAITGDDTTYYADSVKGRFTISRDNAKNTVYLQMNSLKPEDTAVYYCAADETESLEYTAYDMYYWGQGTQVTVSS”, which “polyreactivity (PSR sort gate)” value is on record?
A: The value was “low polyreactivity”.

Q: With “QVQLVESGGGLFQAGGSLRLSCAASGFSFYGNTMGWYRQAPGKERELFASITSGSSTHYADSVKGRFTISRDNAKNTVYLQMNSLKPDDTAVYYCNVEDIQFGKYDYWGQGTQVTVSS” as the sequence, how does the “polyreactivity (PSR sort gate)” value read?
A: The value was “low polyreactivity”.

Q: For “QVQLVESGGGLFQAGGSLRLSCAASGFTFAFNAMGWYRQAPGKERELVAGITSGGRTNYADSVKGRFTISRDNGKNTVYLQMNSLKPEDTAVYYCAADRPYYKGYVPPYYKYRYDYWGQGTQVTVSS”, which “polyreactivity (PSR sort gate)” value is on record?
A: Its value is “high polyreactivity”.

Q: For “QVQLVESGGGLFQAGGSLRLSCAASGFTFARYAMGRSRTAPAKERELVARISWSGGSTYYADSVKGRFTISRDNAKNTVYLLMYSLKTEDTEVYYCAADGWYYRYPRDDYWGQGTQETVSS”, which “polyreactivity (PSR sort gate)” value is on record?
A: The value was “low polyreactivity”.

Q: For “QVQLVESGGGLFQAGGSLRLSCAASGFTFGHNSMGWYRQAPGKERELVAAISYSGGSTYYADSVKGRFTSSRDNAKNTVYLQMNSLKPEDTAVYYCAKRSHTDSVPGVYNEGDFWGQGTQVTVSS”, which “polyreactivity (PSR sort gate)” value is on record?
A: Its value is “low polyreactivity”.

Q: For “QVQLVESGGGLFQAGGSLRLSCAASGFTFHRNAMGWYRQAPGKERELVAAITLNGGSSTYYADSVKGRFTISRDNAKNTVYLQMNSLKAEDTAVYSCALDSYSYTFSKNSDPAEYEYWGQGTQVTVSS”, which “polyreactivity (PSR sort gate)” value is on record?
A: The value was “low polyreactivity”.

Q: With “QVQLVESGGGLFQAGGSLRLSCAASGFTFIPYTMGWYRQAPGKERELVASIISGGSTNYADSVKGRFTISRDNAKNTVYFQMKSLKPEDTAVYYCAAVYFYYCYGWYYYWGQGTQVTVSS” as the sequence, how does the “polyreactivity (PSR sort gate)” value read?
A: The value was “high polyreactivity”.

Q: For “QVQLVESGGGLFQAGGSLRLSCAASGFTFNRNAMGWYRQAPGKERELVAAISWSGGSTYYADSVKGRFTISRDNAKNPVYLQMNSLKPEDTAVYYCAKGYRRVYGPFYYWGQGTQVTVSS”, which “polyreactivity (PSR sort gate)” value is on record?
A: Its value is “low polyreactivity”.

Q: For “QVQLVESGGGLFQAGGSLRLSCAASGFTFPDYAMGSYRQAPGKERELVAAISSDGSTYDADSVKGRFTISRDIAKTTVYLQMNSLKPEDTAVYYCAAYVVWLYGYAYWGQGTQVTVSS”, which “polyreactivity (PSR sort gate)” value is on record?
A: The value was “low polyreactivity”.

Q: Which “polyreactivity (PSR sort gate)” value does the source give for “QVQLVESGGGLFQAGGSLRLSCAASGFTFWYYAMGWYRQAPGKERELVAAISASGGSTYYADSVKVRFTISRDNAKNTVYLQMNCLKPEDTAVYYCAARYPSKFYNTYDRDYWGQGTQVTVSS” here?
A: The value was “high polyreactivity”.

Q: For “QVQLVESGGGLFQAGGSLRLSCAASGFTFYRNAMGWYRQAPGQERELVAAITRGGSTTYADSVKGRFTISRDNAKNTVYLQMNSLKPEDTAVYYCAKGARADVPGYYKYYYWGQGTQVTVSS”, which “polyreactivity (PSR sort gate)” value is on record?
A: The value was “high polyreactivity”.

Q: Which “polyreactivity (PSR sort gate)” value does the source give for “QVQLVESGGGLFQAGGSLRLSCAASGGIFSLYAMGWYRQAPGTERELVAVISSTCSTHYADSVKGRFTISRDNAKKTVSLLMNSLKPEDTAVYYCNADARTSRKKFGYWGQGTQVTVSS” here?
A: The value was “low polyreactivity”.

Q: Which “polyreactivity (PSR sort gate)” value does the source give for “QVQLVESGGGLFQAGGSLRLSCAASGGTFDWYTMGWYRQAPGKERELVADITSGGSTYYADSVKGRFTISRDNAKNTVYLQMNSLKPEDTALYYCNKRDKVTYSYDYWGQGTQVTVSS” here?
A: Its value is “high polyreactivity”.

Q: With “QVQLVESGGGLFQAGGSLRLSCAASGIIFSSNAMGWSRQAPGKERELVAAISSSGSRTYYAASVKGRFTISRDNAKNTVYFQMNSLKPEDTAVYYCAARTISSLNHHGYWGQGTQVTVSS” as the sequence, how does the “polyreactivity (PSR sort gate)” value read?
A: Its value is “high polyreactivity”.

Q: With “QVQLVESGGGLFQAGGSLRLSCAASGINFYKYSMGWYRQAHRKERELVAAITSGGGRTYYADSVKGRFTISRDNAKNTVYLQMNSLKPEDTAVYYCAATRPASYAAYDYWGQGTQVTVSS” as the sequence, how does the “polyreactivity (PSR sort gate)” value read?
A: Its value is “high polyreactivity”.

Q: For “QVQLVESGGGLFQAGGSLRLSCAASGLIFGRYAMGWYRPAPGKERELVAAISRSGGSTHYADSVKGRFTISRDNAKNTVYLQMNSLKPEDTAVYYCAAVWPFDRSRMDYWGQGTQVTVSS”, which “polyreactivity (PSR sort gate)” value is on record?
A: Its value is “high polyreactivity”.

Q: For “QVQLVESGGGLFQAGGSLRLSCAASGLTFQRYDMGWYRQAPVKEIELVAAINYSGGRTYYADSVKGRFTISRDNAKNTVYLQMNSLKPEDTAVYYCAARVRNTYVYQSWDGMYYWGQGTQVTVSS”, which “polyreactivity (PSR sort gate)” value is on record?
A: The value was “high polyreactivity”.

Q: For “QVQLVESGGGLFQAGGSLRLSCAASGLTLYFYVMGWYRQAPGKERELVAAISSTGSTYYADSVKGRFTISRDNAKNTVYLQMNSLKPEDTAVYYCAARYGGHYGAEYYWGQGSQVTVSS”, which “polyreactivity (PSR sort gate)” value is on record?
A: Its value is “high polyreactivity”.

Q: For “QVQLVESGGGLFQAGGSLRLSCAASGRIFGAYTMGWYRQAPGKERELVAAISDGGDTYYADSVKGRFTISRDNAKNTVYLQMNSLKPEDTAVYYCAADAPYYAYYWYPSSLGIYGYWGQGTQVTVSS”, which “polyreactivity (PSR sort gate)” value is on record?
A: Its value is “low polyreactivity”.

Q: Which “polyreactivity (PSR sort gate)” value does the source give for “QVQLVESGGGLFQAGGSLRLSCAASGRIFGPYAMGWYRQAPGKERELVATITLRGGSTYYADSVKGRFTISRDNAKNTVYLQMNSLKPEDTAVYYCNARYYSLVYRYDYWGQGTQVTVSS” here?
A: Its value is “high polyreactivity”.

Q: For “QVQLVESGGGLFQAGGSLRLSCAASGRIFQHNTMGWYRQAPGKEREFVAAIRRSGGSTYYADSVKGRFTISRDNAKNTVYLQMNSLKPEDTAVFYCAARDYPTGTRRWGGGDSWGQGTQVTVSS”, which “polyreactivity (PSR sort gate)” value is on record?
A: The value was “low polyreactivity”.

Q: With “QVQLVESGGGLFQAGGSLRLSCAASGRIFSCYAMGWYRQAPGKERELVAAITVRGSTYYADSVKGSFTISRDNAKNTVYLQMNSLKPEDTAVYYCAAGGYPGTTYYGYDFWGQVTQVTVSS” as the sequence, how does the “polyreactivity (PSR sort gate)” value read?
A: The value was “low polyreactivity”.

Q: Which “polyreactivity (PSR sort gate)” value does the source give for “QVQLVESGGGLFQAGGSLRLSCAASGRIFYTNVMGWYRPAPGKERELVAAISTGGGRTYYADSVKGRFTISRDYAKNTVYLQMNSLKPEDTAVYYCAADWRTKGYDSLGQGTQVTVSS” here?
A: The value was “high polyreactivity”.
